Experimental findings from article PMC10397247 are described below.

Holding throughout (assay): two-hybrid library CCNG1;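 further: natural log of median RNA to DNA barcode read ratio; higher means stronger binding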
In assay [1] the target is T1, 4H454-bH.
T1 chain: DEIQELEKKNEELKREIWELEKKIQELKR

Assay [2] deals with T2, 4H797-bH.
T2 chain: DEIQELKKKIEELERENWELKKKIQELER

Assay [3] concerns the target T3, 4H3606-bH.
T3 chain: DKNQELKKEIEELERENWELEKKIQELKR

Assay [4] has as its target T4, 4H3855-bH.
T4 chain: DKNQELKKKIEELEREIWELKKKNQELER

Assay [5] deals with T5, 4H883-bH.
T5 chain: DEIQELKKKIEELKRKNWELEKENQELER

Assay [6] has as its target T6, 4H3782-bH.
T6 chain: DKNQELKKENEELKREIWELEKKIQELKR

In assay [7] the target is T7, 4H754-bH.
T7 chain: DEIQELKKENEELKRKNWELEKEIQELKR

Assay [8] addresses T8, 4H908-bH.
T8 chain: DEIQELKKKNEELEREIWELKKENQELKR

Assay [9] concerns the target T9, 4H338-bH.
T9 chain: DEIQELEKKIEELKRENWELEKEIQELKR

The target in assay [10] is T10, 4H3843-bH.
T10 chain: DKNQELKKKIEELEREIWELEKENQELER

Assay [11] has as its target T11, 4H4001-bH.
T11 chain: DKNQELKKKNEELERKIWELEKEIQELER

The target in assay [12] is T12, 4H717-bH.
T12 chain: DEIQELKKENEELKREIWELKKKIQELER

Assay [13] concerns the target T13, 4H3354-bH.
T13 chain: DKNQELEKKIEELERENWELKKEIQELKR

Assay [14] addresses T14, 4H918-bH.
T14 chain: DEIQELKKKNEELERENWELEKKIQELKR

Assay [15] addresses T15, 4H3427-bH.
T15 chain: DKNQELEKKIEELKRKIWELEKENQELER

Assay [16] concerns the target T16, 4H687-bH.
T16 chain: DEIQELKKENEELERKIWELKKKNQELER

For assay [17], the target named is T17, 4H754-bN.
T17 chain: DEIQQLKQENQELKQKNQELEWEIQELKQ

In assay [18] the target is T18, 4H370-bH.
T18 chain: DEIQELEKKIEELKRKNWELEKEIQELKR

Assay [19] has as its target T19, 4H967-bH.
T19 chain: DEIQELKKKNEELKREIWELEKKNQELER

In assay [20] the target is T20, 4H953-bH.
T20 chain: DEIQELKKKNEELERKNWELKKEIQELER

Assay [21] has as its target T21, 4H72-bH.
T21 chain: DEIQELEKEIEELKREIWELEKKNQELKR

Assay [22] deals with T22, 4H462-bH.
T22 chain: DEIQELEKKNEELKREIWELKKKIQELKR

The target in assay [23] is T23, 4H331-bH.
T23 chain: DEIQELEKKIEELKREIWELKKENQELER

In assay [24] the target is T24, 4H568-bH.
T24 chain: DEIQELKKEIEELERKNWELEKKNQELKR

Assay [25] has as its target T25, 4H607-bH.
T25 chain: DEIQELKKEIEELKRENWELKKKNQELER

Assay [26] deals with T26, P9bH1.
T26 chain: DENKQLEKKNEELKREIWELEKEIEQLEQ

The target of assay [27] is T27, 4H349-bN.
T27 chain: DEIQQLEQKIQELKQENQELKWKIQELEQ

Assay [28] addresses T28, 4H949-bN.
T28 chain: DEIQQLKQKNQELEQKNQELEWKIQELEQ

Assay [29] concerns the target T29, 4H3364-bN.
T29 chain: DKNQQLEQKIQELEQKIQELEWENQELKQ

For assay [30], the target named is T30, 4H796-bN.
T30 chain: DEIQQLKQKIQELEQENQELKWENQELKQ

Assay [31] has as its target T31, 4H2931-bN.
T31 chain: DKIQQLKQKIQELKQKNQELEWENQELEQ

In assay [32] the target is T32, 4H730-bN.
T32 chain: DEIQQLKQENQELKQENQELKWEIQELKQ

Assay [33] concerns the target T33, 4H3381-bN.
T33 chain: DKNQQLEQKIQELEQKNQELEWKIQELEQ

The target in assay [34] is T34, 4H3041-bN.
T34 chain: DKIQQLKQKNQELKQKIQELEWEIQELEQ

In assay [35] the target is T35, 4H2760-bN.
T35 chain: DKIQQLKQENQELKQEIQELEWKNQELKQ

For assay [36], the target named is T36, 4H932-bN.
T36 chain: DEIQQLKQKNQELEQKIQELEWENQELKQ

Assay [37] deals with T37, 4H2859-bN.
T37 chain: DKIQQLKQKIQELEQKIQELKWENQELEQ

The target in assay [38] is T38, 4H3297-bN.
T38 chain: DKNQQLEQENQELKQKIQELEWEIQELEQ

Assay [39] concerns the target T39, 4H56-bN.
T39 chain: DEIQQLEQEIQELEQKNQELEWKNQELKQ

On to DEIQELEKKIEELKREIWELKKENQELER [4H331-bH], for which the interaction score in assay [1] is -0.0612; in assay [2] it was -0.0604; in assay [3], 0.467; in [4] it was 0.334; in [5], 0.193; in [6], -0.0752. Besides, the interaction score in assay [7] was -1.42; in [8], -0.0604; in assay [9], 0.213; in assay [10] it was 0.837; in assay [11], 0.891; in assay [12], -1.1. Moreover, the interaction score in [13] was -0.721; in assay [14], -1.11; in assay [15], 1.6; in assay [16] it was -0.531; in assay [17] it was -1.25; in assay [18], -0.325. Moreover, the interaction score in [19] was -0.299; in [20], -0.344; in [21] it was 0.733; in assay [22], 0.445; in [23], 1.45; in [24], -1.97. The same molecule yielded an interaction score in [25] of -1.89.

DENKQLEKKNEELKREIWELEKEIEQLEQ [P9bH1] returned an interaction score in assay [26] of -0.482.

On to DKIQQLKQENQELKQEIQELEWKNQELKQ [4H2760-bN], for which the interaction score in assay [27] was -1.63; in assay [28], 0.472; in assay [29], -0.234; in [30], 0.11; in [31], -0.107; in [32], -0.45. The interaction score was 0.638 in assay [33]; -0.517 in assay [34]; -0.578 in assay [35]; -1.77 in assay [36]; 1.03 in assay [37]; -1.61 in assay [38]. The same molecule showed an interaction score in assay [39] of -0.482.
